# Data published in paper PMC6612188.
# Positions count from the first letter of the chain named.
# Assays:
# [1] = molecular target: T1, VraR (unphosphorylated) (Staphylococcus aureus) (UniProt Q7A2Q1); assay: DNase I footprinting; conditions: 10 mM Tris pH 7.5, 50 mM KCl, 1 mM DTT, 10 mM MgCl2, 50% glycerol, 20 ng/ul herring sperm DNA; 2 ng amplicon; protein 0-50 uM; temperature not stated
# T1 sequence: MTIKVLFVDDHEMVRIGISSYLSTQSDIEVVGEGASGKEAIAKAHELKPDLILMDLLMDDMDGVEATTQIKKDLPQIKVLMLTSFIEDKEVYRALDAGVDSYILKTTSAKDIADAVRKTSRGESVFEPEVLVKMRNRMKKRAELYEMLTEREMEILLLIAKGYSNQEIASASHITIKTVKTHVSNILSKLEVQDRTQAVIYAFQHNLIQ
# [2] = molecular target: T2, VraRM13A (unphosphorylated) M13A (Staphylococcus aureus) (UniProt Q7A2Q1); assay: DNase I footprinting; conditions: 10 mM Tris pH 7.5, 50 mM KCl, 1 mM DTT, 10 mM MgCl2, 50% glycerol, 20 ng/ul herring sperm DNA; 2 ng amplicon; protein 0-50 uM; temperature not stated
# T2 sequence: T1 sequence with M13A
sequence,measurement,setting,value
TGAAATGACGCATTGATTGTGTTCTTAATTATTATAAAACAGTTCCGAAACCAATATGAATAGGCTCCGGAACTAAATGATGTTCATACTTTAGTCTTAGTATATGTTGAACTATTCTTCTTCAATCTTTGTCGTTAAAATCGGACCAAGCTTCGT (double strand) [PvraSR (-121 to +26)],binding,[1],binds
same,binding,[2],binds more weakly
